The results in this text go back to the DeepSol protein solubility set.

A short description of this data set: soluble on expression in E. coli; label from the status in PepcDB or PDB records.
Regarding “MSLQVEKISIIGLGLIGGSLAKALKEKLGIESITAVDINEKSLSQALKEGFIKEGFTELNESVYNSDIIFICTPVKDAVEYITRLHGKVKAGCILTDTASTKGEIIDYVNSLDNPPCFIGGHPMAGTEKAGFSSSFSHLFENAYYIMSPSKNCPEESLEYLAEIIRGIGAIPIKLDSKEHDIITATISHVPHVIASALVNLVKFSDSPDGKMQTLAAGGFKDITRIASSNPKMWENIILSNKEIVKSTLNKFTETINTFIEYIDNENSNGIYNFFDSAKKFRDSIPNNRKGLIEPQNELIVDVVDKPGIIGEIATILGNNGINIKNINVSNSREFEQGCLRITLPDSGSVAEAYELLAKKGYKVFKIEGHHHHHH”, the “soluble on expression in E. coli” value is reported as “soluble”.

Regarding “MSLRERNQVIPVLPPQERPRPTVVFDCEDFLVKKRFSFFNLDFLVTGRAFADLFLFHAAHIYELVHVSGSPGSFSRLLLHRIDPYGCISYKVYCKDKKTFSSEHLNRPLQRVMVVSTRENEYHKDFDGNTIKLERWSGDPEHGLLDLLNFLHSLHFMGIKDFRGTLRSYLGEGHHHHHH”, the “soluble on expression in E. coli” value was “not soluble”.

Take “MSLRFNVLKYIRTTKANIQTIAMPLTTKPLSLKINAALFDVDGTIIISQPAIAAFWRDFGKDKPYFDAEHVIHISHGWRTYDAIAKFAPDFADEEYVNKLEGEIPEKYGEHSIEVPGAVKLCNALNALPKEKWAVATSGTRDMAKKWFDILKIKRPEYFITANDVKQGKPHPEPYLKGRNGLGFPINEQDPSKSKVVVFEDAPAGIAAGKAAGCKIVGIATTFDLDFLKEKGCDIIVKNHESIRVGEYNAETDEVELIFDDYLYAKDDLLKWEGHHHHHH”: the “soluble on expression in E. coli” value was “not soluble”.

On to “MSLRGMRIDAYIAEHARKNPDQLALEDGKKSISYSCLDEDINKVASSLDGFEHCKFAILAESGIQYVKILMAVYRSGNIAIPLPIEMQGRSLERILDTACINNIIATKKQYSRFGDGFFERFGTVIVVSDDTSVETLSRRMILERNDPRLRLVLYTSGTTGTPKGVMLSDKNLVSNARSITGILSIGSKDKAALVISPHHAFGNSIINSHLMAGSSIQIGTMNFIDPVFSLIESGVSIFYGVPSTYRILLKYPERFRKAFQNVRTAASAGGAMDRTVVRSIRELSPDTQILPMYGQTEATARLSYLPAEDVDEFIDTIGKAIPGVTLEVFDTENRPVEPGVTGELVARGDNILLGYLNDEAATEKKIIDGWLHTGDLAQKLRCGYIKLLGRKDDLIKIGDHRVNPREIEKEIEMNNEVSSVFVVPVSHELMGNAISLMVIPNERTEIDTIFSFCRKNLPGYLYPREILFIDHLPLSENGKISNRSIIEEYQHVKASEGHHHHHH”, for which the “soluble on expression in E. coli” value is listed as “soluble”.

As for “MSLRKHCIAIGGGGWMMGENPSPLYQYILSLSGKENPNICFLPTATGDADEVIERFYNAKLSENVTHFPLFKFDAGWKETLFEQDIIYVGGGNTRSMLAIWREWGIDRILKQCYEQGIIICGMSAGAICWFEFAVTDSDPEAYQVMRCLGLIDGLAAAHFSHVGEKFEVFQAFARSQPSITCYGIHDYAALHFVDGKLLATVTSFPDAGVLVKTGNDENILRGEGHHHHHH”, the “soluble on expression in E. coli” value is “soluble”.

With “MSLRKKGPVVLGKFWIYWCEKCNVPLIGDTCSIHGKDSVFKITLTPPGDVRFAFPKDIELIREVFREHYGVDLGELLEGKIVLLNKIPGEDDSYEIIFDGFIFGIISFNPRKLKWKPGLKEEGAKLLWEKFGKSLKKWVIIDRGAVEPVKNGANVLPVGVIEAEESIRRGDEVIVVSEDGEVVGVGIAKKDYNELINPQARGTGVKMKRKSKGSGKRLNGRKATIKDVIKANSAELEKKVREARNFMRSVAEKFKLPVAVAFSGGKDSLAVLGLAMEEFNNFTVFFNNTGIEFPETVEYVMKLREKYKNLNFIIADAGDAFWRAINIFSPPGMDYRWCCKVTKLGPITLAIRKHFPNGVLMFVGQRKFESFKRYKQGRVWKNKWVPNEIGAAPIFHWTALEVWLYIFSRGLEYNPLYEKGIDRIGCFLCPSQSLAEIQRLKEEKPELWEKWYRELEKWRKRLGLPREWIEYGFWRWRRVGRREKVLAKELGVEIPEERSWEVIKFDIKEEEGKYIVRPSTKLNLTRIREVAPILGNVEEGDNYLKAGENIFDKDKNVIISPSLEEAYSSVLLLKRAYECVGCGVCITSCPEEAIELDEKRKKIVVSLEKCTHCRECMNVCPLVVIKGVDNILEGHHHHHH”, the “soluble on expression in E. coli” value is recorded as “not soluble”.

In the case of “MSLRPARKTVGVALSGGGANGIAQIGVLKALDEERIPVDYIAGTSMGAIIGGLYSCGYSPADLEKIAETLPWQSVLSIREENPRARIFLEQQRIRDRSTIAIRFDKLKLMIPKSLSSAQALTGTLDLLILNGVYHSWQDFNSLPVQFRAVSTDLISGKRITLTSGSLSEAMRASSTIPVLFEPIERDGYRLVDGGLVANLPVDELDVVNASYKIAVDTHGSMYSKSGDLDLPWKAADQAITILTGLQYPAQLEKADEGHHHHHH”, the “soluble on expression in E. coli” value is given as “soluble”.

Consider “MSLRPVKLAALLPLTGPFAFAGNAGREGFVDGVDYVNEVLGGIAGRKLELIVEDTGYDVAKGTAAFNRVLSRERPDELLFVYGDSTGLSKALAPEIARIGLPYSATSFANELADPEKYPTIFVFGPTYNDMMEALLRQIRLQKGKARIALVYSNTEFGRDPIPYVKERAKALGMEVVHEEVTPPAFTDATPVVLNLRRANPDFVLLQGYALSAEPLILRAAREQGLRAQFMGTYYSAELVLIQRAGPAAEGFTVTYHNPYWYDTLVPAVDEMRKFRQRKGRDSSYRPTYYMGSLAVALGVAEAMRRAAQAGKLTRAGVVEYLEKIGDYNAMGLVRGYQFVNHRIPYTKLYRASVKDGRFNAITDWLKLAEGHHHHHH”, for which the “soluble on expression in E. coli” value is “soluble”.

Turning to “MSLRTVDEKKEQVEKLIQSLDEGVKNFTYNPGRFKALLEMQALMPKYTFRNIMLARIQLPEAQFIASFNRWKELGRNVKKGERSLRILAPRFKKVKDEITGEEETKLIGFLGVPVFDVSQTEGDPLPADRIKLTLDGESQEAVDIFEWVKELAKEDDCPVTIKHADGANGYYSITNHAIVVDSKLSINHRAKTGVHELVHSRVHRNINGTTATERECVAEGVAFIVCSYFGLDTSDYSFEYVNGWSKDGGESLMKYGDIMQKTANLLIEDFERVAEKSQAQAAGEGEKNDSPISAEGHHHHHH”, the “soluble on expression in E. coli” value is recorded as “soluble”.

As for “MSLRVLFCSSEIYPYAKTGGLADFSFCLIKYLKKYGVKVKGVMPYYKTLKAENLRKTDKGVTLNLNGKDYTFEVYESEDCYFLRNDELFGRDYIYGPPGWGYEDNDIRFGGFSRAVSELISTGQLEADVVHANDWQTALIPLFLKEVFKTPVKTVFTIHNLAYQGLFPKETVERVGIPPYLFHMEAVEFWGLVNFMKGGIVFSDLITTVSPTYAKEIQTQEYGYGLEGVLKKYSYKLRGILNGIDYEVWNPEKDKYIYQNYSLRNYSKKFKNKEFLSKELGIEAEKPLISFINRFTHQKGVELILNCAEEMSKLNANFVFLGTGEYENAFLDVSKIYKNFKVFAEFNEGFARKLYASSDFILMPSYFEPCGLTQMIGMRYGCVPIVRKTGGLRDTVKDISEGGYGITFEEPSKETFLCSLKRAIELYENAKKFRNSVKIVMSLDFSCDRMTKEYIECYEEVQSHQEGHHHHHH”, the “soluble on expression in E. coli” value is given as “soluble”.

In the case of “MSLRWEGTEEEAYKAEGTHFSGARRQTLVGRPAGQEAPAFETRYFEVEPGGYTTLERHEHTHVVMVVRGHAEVVLDDRVEPLTPLDCVYIAPHAWHQIHATGANEPLGFLCIVDSDRDREGHHHHHH”, the “soluble on expression in E. coli” value is “not soluble”.

Consider “MSLSDKTMTADEAVSRLRSGMTLGIGGWGSRRKPMALVRALLRSGITDLTVVSCGGPDVGMLAAAGRIRKLVAAFVTLDSIPLEPHYRAARERGALELMEIDEAMFLWGLRAAAGRLPFLPVRAGIGSDVMRVNPGLRTITSPYVDGETFVAMPALRLDAALVHLNRADRLGNGQYLGPDPYFDDLFCEAADTAYVSCERVVDTAELTKEAAPQTLLVKRHTVTGVVEAEGHHHHHH”, for which the “soluble on expression in E. coli” value is “not soluble”.

As for “MSLSDYAPGMTGGPTGFEGAERFQYNNTMSEGRAIEGIKALQAAGNAPAKISMLLTDGAIGQITKPFPEGGPSAKEVWERETGIEIDIVGAPAEDIFKKVMQDVTTGGGTFDIYTGPWNSTGDLVSSGGAVNCSDFVAKYQPDWADPERGTPTPEMEKLLYTYAGDYYSFSLDGDFQTWFYLKGLYEDPRVQDAFLSETGVALKTPDTWEEVDRISKFFTGKDFGNGPMYGNGNLMSPFWGLATFYARFASMDFPNYHFFDEDGNPNLNSDLGIQCAEEHVRSFEWCPPDALTFTWAEAYATMWNLQIPHTAIYTNLVKFGDGYNADGTPKSKATGMIGSHLPVGRRFGDQLNRRSVLYYHITAWISSQSQHPEAVYLFLQWLSSTRTYTWMAGNPGGYFDPMQQANFKEPLVASTYHPYAMETIPQTIARSVPSINFAGQTALDNALDEEIQAAITGQKSAREAMDAAQSKWERIIKRQKRNGIVDAIKASRATWPTIVDEGHHHHHH”, the “soluble on expression in E. coli” value was “soluble”.

Take “MSLSEADTSNAKLADFFAKKGNEPLSEIEMEGVLALMQKSRGVADESSFLGNSSRLLGDISNANASQVLRTGNISTSSALNVPNFKPSTDESRNINAKEVENSTIVSTPLKRKNFDYSSIRSPYRTVIYRFDDSNKKKISSVFDKPESSSQEVDETPKPSNSKPLSNTASALVSLLSDKDAAKESIKPMANPYTSHLTALRKSREDLPSINDKITVPKRRQRSETEDKEEAKITSSNGEAQEDTNIPEGIASRKNEEAQDSFTKYKPMRSSSLRDSVSLAHTESNNEKQMNSPKFVPAPLDKNETKETAKSDLTLTSSDKQSESKPSFSFPVNSTTKSTFMGTKKESTSPAVNSQAVKNVSNNETKEIKPQVHECIYDFGNPTSSGFKKTDIDDTLVSKYRGQFVFEGHHHHHH”: the “soluble on expression in E. coli” value is reported as “soluble”.

With “MSLSEEILINITPMESRVAVVENGVLQEVHVERTQRRGIVGNIYKGRVVRVLPGMQAAFVDIGLERAAFIHAAEISNREGSAVESISALVHEGQALVVQVTKDPIGTKGARLTTHLSIPSRYLVYMPRTSHVGISLRIEDEVERERLKKVVADCVAAEGIEGQGGFILRTAAEGAGEDEILADIRYLRRLWDQIAAQIQTVGAPSVIYEDLSLAIRTLRDLVNPRIEKIRIDSRENFQKITSFVEELMPEISDRLEHYPGERPIFDLYGVEDEIQKALERKVLLKSGGYLIVDPTEAMTTIDVNTGAFVGHRNLEETIFKTNLEAATAIARQLRLRNLGGIIIIDFIDMEDEEHRRQVLRTLEKQLERDHAKTNIIGITELGLVQMTRKRTRESLVQILCEPCPCCQGRGMLKTAETTCYEIFREILREARAYQADSYLVLANQKVVDRLLDEESGNVADLEAFIGRTIKFQVEAMYSQEQYDVVLLEGGSHHHHHH”, the “soluble on expression in E. coli” value was “soluble”.

For “MSLSEFWKEKHGEREQDHEKTIMDGYSVANRFDGTGGGWGYSANSVEAIQFKVSKEIRLVGVGLYGGRGEYISKLKLYRQIGTEADELYVEQITETDETVYDCGAHETATMLFSQPIVIQPNHWHVVSAKISGPSSDCGANGKRHVECDGVTFQFRKSAVSNNGTDVDVGQIPELYYQIVGGSESRDESDSNKQLSISREGHHHHHH”, the “soluble on expression in E. coli” value is “soluble”.

As to “MSLSERTYFPPAEEGELSKVESFLAVYKDRHGTEARPQFFLSGSNEGEQIPLPKELYEILVRTVEALASGKAVTIHPNDPLVTTQQAAELLGVSRPTVVKLIEDGKLEATKVTRHRRIKLEDVLRYQERQTIEQLDFLASTTSDAPALTESEYVSVRKMLANKRKESRIG”, the “soluble on expression in E. coli” value was “not soluble”.

With “MSLSETSRQLSGRFLHVTDFHLDTHYRKGTSEETLCHRDSGSAGRLGAEGSDCDSPQALIDETFRWIEKNLKGKIDFVLWTGDSARHDNDEKIPRTASEIIDLNKALAAKFIEVFEDSGAARGLSIPVIPTIGNNDIMPHNIFREAPNRWTRKFTEVWSEFIPEAQRHTFEEGGWFSAELIPNKLAALSLNTMYFYESNSAVDGCAMPSEPGFEHMEWLRVQLEILRQRGMKAILIGHVPPARSGSKRSWDESCWQKYTLFMNRFRDVVVGSVYGHMNVDHFMLQDSHDVDIVAASEDSSSDPGFSVQSRTDYLASLREEWDSMPSPPGGDSSDILLSDDWNLDALGKKEREGHHHHHH”, the “soluble on expression in E. coli” value is recorded as “soluble”.
